Experiments:
Ex vivo biodistribution = conditions: Balb/c nude, mouse, in vivo, iv, 1 ug, total radioactivity, 1 h PI, ex vivo gamma counting, n = 3, ±SEM
Method: (§1) All animal experiments were performed with approval from the Peter MacCallum animal ethics committee. Six- to eight-week-old Balb/c nude mice (Animal Resources Centre, Western Australia) were implanted subcutaneously on the right flank with three million AR42J cells (sourced from ATCC). Once the tumours reached a volume >150 mm^3, the animals (n = 3) were injected intravenously with 23–28 MBq [^68Ga(THP-TATE)] (containing 1 μg of THP-TATE). For blocking studies, animals (n = 3) were coinjected with Tyr^3-octreotate peptide (400 μg). For [^68Ga(DOTATATE)], the animals (n = 3) were injected with 8 MBq of the tracer (containing 1 μg of DOTATATE). At 1 h, the animals were anaesthetised and imaged on a Philips MOSAIC small animal PET scanner. The images were reconstructed using a 3D RAMLA algorithm and tracer uptake determined as described previously. On completion of the scan, animals were euthanised and tissues harvested, weighed and radioactivity counted using a gamma counter (Biomedex). Quantitation of PET images was performed using in-house software (MARVn 3.31). Regions of interest were drawn around tissues of interest and uptake ratio calculated as the maximum pixel intensity in the tumour divided by the average uptake in a mediastinal background region, liver or kidneys, as appropriate.

[1] = test system: SSTR2-positive AR42J tumours; test: Ex vivo biodistribution; conditions: 1 h PI, i.v., ex vivo gamma counting; n = 3, ±SEM
Method: as §1

[2] = PET scanning, tumour to organ/background ratios; conditions: Balb/c nude, mouse, in vivo, iv, 1 ug, total radioactivity, PET images 1 h PI, ±SEM, n = 3
Method: as §1

Compound `C[C@@H](O)[C@H](NC(=O)[C@@H]1CSSC[C@H](NC(=O)[C@@H](Cc2ccccc2)NC(=O)CN2CCN(CC(=O)O)CCN(CC(=O)O)CCN(CC(=O)O)CC2)C(=O)N[C@@H](Cc2ccc(O)cc2)C(=O)N[C@H](Cc2c[nH]c3ccccc23)C(=O)N[C@@H](CCCCN)C(=O)N[C@@H]([C@@H](C)O)C(=O)N1)C(=O)O` [[^68Ga(DOTATATE)], metal not drawn] has a tissue uptake at 1 h (Ex vivo biodistribution; AR42J tumour uptake) of 14.4 ± 0.8 %ID/g, a tissue uptake at 1 h (Ex vivo biodistribution; kidney retention) of 5.6 ± 0.5 %ID/g and a blood retention [1] of 0.3 ± 0.1 %ID g^−1. The tissue to tissue ratio at 1 h ([2]; Tumour to kidney ratio, maximum tumour pixel intensity / average organ uptake) was 5.7 ± 0.2 and the tissue to tissue ratio at 1 h ([2]; Tumour to liver ratio) was 27.2 ± 3.9.
